B1: Cyclin-F, residues 28 to 80; numbered along this chain, P41002 (parent)
chain: RNLTILSLPEDVLFHILKWLSVEDILAVRAVHSQLKDLVDNHASVWACASFQE

± gives the uncertainty stated by the source.

In the data set the parent is B1. Nature of the data set: abundance fitness (aPCA) (normalised: wild type 0, dead -1); higher = more abundant; growth selection in yeast, the domain comes from the species named. The note with it: Homo sapiens.
In the case of RNLTILSLPEDVLFHILKWLSVEDILAVRAVHSQLKDLVHNHASVWACASFQE [D40H], the abundance fitness was -0.552 ± 0.19.
The figure for RNLTILSLPEDVLFHILKWLSVEDILAVRAVHSQLKDLVCNHASVWACASFQE [D40C] is -0.912 ± 0.22; for RNLTILSLPEDVLFHILKWLSVEDILAVRAVHSQLKDLVKNHASVWACASFQE [D40K] it is -0.805 ± 0.27; for RNLTILSLPEDVLFHILKWLSVEDILAVRAVHSQLKDLVFNHASVWACASFQE [D40F] it is -0.828 ± 0.22.
The figure for RNLTILSLPEDVLFHILKWLSVEDILAVRAVHSQLKDLVLNHASVWACASFQE [D40L] is -0.919 ± 0.12.
For the variant RNLTILSLPEDVLFHILKWLSVEDILAVRAVHSQLKDLVGNHASVWACASFQE [D40G], the abundance fitness was -0.77 ± 0.1.
With RNLTILSLPEDVLFHILKWLSVEDILAVRAVHSQLKDLVANHASVWACASFQE [D40A], the abundance fitness was -0.917 ± 0.13.
Take RNLTILSLPEDVLFHILKWLSVEDILAVRAVHSQLKDLVENHASVWACASFQE [D40E]: the abundance fitness is -0.684 ± 0.17.
As to RNLTILSLPEDVLFHILKWLSVEDILAVRAVHSQLKDPVDNHASVWACASFQE [L38P], the abundance fitness is -0.935 ± 0.27.
The figure for RNLTILSLPEDVLFHILKWLSVEDILAVRAVHSQLKDYVDNHASVWACASFQE [L38Y] is -0.151 ± 0.16; for RNLTILSLPEDVLFHILKWLSVEDILAVRAVHSQLKDVVDNHASVWACASFQE [L38V] it is 0.273 ± 0.088; for RNLTILSLPEDVLFHILKWLSVEDILAVRAVHSQLKDDVDNHASVWACASFQE [L38D] it is -0.758 ± 0.18.
The figure for RNLTILSLPEDVLFHILKWLSVEDILAVRAVHSQLKDWVDNHASVWACASFQE [L38W] is -0.214 ± 0.12; for RNLTILSLPEDVLFHILKWLSVEDILAVRAVHSQLKDQVDNHASVWACASFQE [L38Q] it is -0.682 ± 0.2; for RNLTILSLPEDVLFHILKWLSVEDILAVRAVHSQLKDKVDNHASVWACASFQE [L38K] it is -0.34 ± 0.17.
The figure for RNLTILSLPEDVLFHILKWLSVEDILAVRAVHSQLKDSVDNHASVWACASFQE [L38S] is -0.302 ± 0.1; for RNLTILSLPEDVLFHILKWLSVEDILAVRAVHSQLKDGVDNHASVWACASFQE [L38G] it is -0.561 ± 0.095.
For the variant RNLTILSLPEDVLFHILKWLSVEDILAVRAVHSQLKDRVDNHASVWACASFQE [L38R], the abundance fitness was -0.633 ± 0.11.
The figure for RNLTILSLPEDVLFHILKWLSVEDILAVRAVHSQLKDFVDNHASVWACASFQE [L38F] is 0.07 ± 0.13; for RNLTILSLPEDVLFHILKWLSVEDILAVRAVHSQLKDNVDNHASVWACASFQE [L38N] it is -0.906 ± 0.26.
The figure for RNLTILSLPEDVLFHILKWLSVEDILAVRAVHSQLKDCVDNHASVWACASFQE [L38C] is 0.17 ± 0.099; for RNLTILSLPEDVLFHILKWLSVEDILAVRAVHSQLKDHVDNHASVWACASFQE [L38H] it is -0.12 ± 0.2.
The figure for RNLTILSLPEDVLFHILKWLSVEDILAVRAVHSQLKDEVDNHASVWACASFQE [L38E] is -0.872 ± 0.24; for RNLTILSLPEDVLFHILKWLSVEDILAVRAVHSQLKDIVDNHASVWACASFQE [L38I] it is 0.244 ± 0.17; for RNLTILSLPEDVLFHILKWLSVEDILAVRAVHSQLKDAVDNHASVWACASFQE [L38A] it is -0.075 ± 0.094.
On to RNLTILSLPEDVLFHILKWLSVEDILAVRAVHSQLKDMVDNHASVWACASFQE [L38M], for which the abundance fitness is -0.008 ± 0.13.
Regarding RNLTILSLPEDVLFHILKWLSVEDILAVRAVHSQLKDTVDNHASVWACASFQE [L38T], the abundance fitness was -0.133 ± 0.15.
The figure for RNLTILSLPEDVLFHILKWLSVEDILAVRAVHSQLKDLLDNHASVWACASFQE [V39L] is -0.287 ± 0.1; for RNLTILSLPEDVLFHILKWLSVEDILAVRAVHSQLKDLSDNHASVWACASFQE [V39S] it is -0.445 ± 0.12; for RNLTILSLPEDVLFHILKWLSVEDILAVRAVHSQLKDLTDNHASVWACASFQE [V39T] it is -0.787 ± 0.19.
The figure for RNLTILSLPEDVLFHILKWLSVEDILAVRAVHSQLKDLPDNHASVWACASFQE [V39P] is -0.931 ± 0.19; for RNLTILSLPEDVLFHILKWLSVEDILAVRAVHSQLKDLCDNHASVWACASFQE [V39C] it is -0.245 ± 0.12.
The figure for RNLTILSLPEDVLFHILKWLSVEDILAVRAVHSQLKDLIDNHASVWACASFQE [V39I] is -0.074 ± 0.098.
With RNLTILSLPEDVLFHILKWLSVEDILAVRAVHSQLKDLADNHASVWACASFQE [V39A], the abundance fitness is -0.341 ± 0.11.
Consider RNLTILSLPEDVLFHILKWLSVEDILAVRAVHSQLKDLFDNHASVWACASFQE [V39F], for which the abundance fitness was -0.819 ± 0.22.
Regarding RNLTILSLPEDVLFHILKWLSVEDILAVRAVHSQLKDLEDNHASVWACASFQE [V39E], the abundance fitness was -0.819 ± 0.17.
The figure for RNLTILSLPEDVLFHILKWLSVEDILAVRAVHSQLKDLKDNHASVWACASFQE [V39K] is -0.767 ± 0.15; for RNLTILSLPEDVLFHILKWLSVEDILAVRAVHSQLKDLRDNHASVWACASFQE [V39R] it is -0.793 ± 0.099.
Consider RNLTILSLPEDVLFHILKWLSVEDILAVRAVHSQLKDLWDNHASVWACASFQE [V39W], for which the abundance fitness is -0.648 ± 0.15.
The figure for RNLTILSLPEDVLFHILKWLSVEDILAVRAVHSQLKDLMDNHASVWACASFQE [V39M] is -0.781 ± 0.27.
In the case of RNLTILSLPEDVLFHILKWLSVEDILAVRAVHSQLKDLDDNHASVWACASFQE [V39D], the abundance fitness was -0.655 ± 0.21.
As for RNLTILSLPEDVLFHILKWLSVEDILAVRAVHSQLKDLQDNHASVWACASFQE [V39Q], the abundance fitness is -0.362 ± 0.3.
The figure for RNLTILSLPEDVLFHILKWLSVEDILAVRAVHSQLKSLVDNHASVWACASFQE [D37S] is 0.006 ± 0.098; for RNLTILSLPEDVLFHILKWLSVEDILAVRAVHSQLKNLVDNHASVWACASFQE [D37N] it is -0.017 ± 0.13; for RNLTILSLPEDVLFHILKWLSVEDILAVRAVHSQLKTLVDNHASVWACASFQE [D37T] it is 0.076 ± 0.12.
The figure for RNLTILSLPEDVLFHILKWLSVEDILAVRAVHSQLKWLVDNHASVWACASFQE [D37W] is -0.42 ± 0.13.
The figure for RNLTILSLPEDVLFHILKWLSVEDILAVRAVHSQLKVLVDNHASVWACASFQE [D37V] is -0.049 ± 0.1.
Take RNLTILSLPEDVLFHILKWLSVEDILAVRAVHSQLKQLVDNHASVWACASFQE [D37Q]: the abundance fitness worked out at 0.075 ± 0.17.
Turning to RNLTILSLPEDVLFHILKWLSVEDILAVRAVHSQLKPLVDNHASVWACASFQE [D37P], the abundance fitness is -1.02 ± 0.2.
The figure for RNLTILSLPEDVLFHILKWLSVEDILAVRAVHSQLKMLVDNHASVWACASFQE [D37M] is 0.158 ± 0.14.

The record behind these values is the Human Domainome abundance scans (Beltran et al. 2025).
